The values below come from article PMC7326497, “Membrane characteristics tune activities of endosomal and autophagic human VPS34 complexes” (eLife, 2020).

In this assay the target is T1, human VPS15, subunit of complexes I and II (human, UniProt Q99570 1-1358).
T1 construct: VPS15, human; expressed as HsVPS15-3xTEV-ZZ from the plasmid HsVPS34 + HsVPS15-3xTEV-ZZ; A 3xTEV site lies between VPS15 and ZZ; whether the tag was cut off is told only in Ohashi et al., 2016; The printed theoretical masses fit tag-free whole chains (my reckoning); also called HsVPS15; source: Expi293 cells, transfected, co-expressed with the other subunits, purified as a complex (method of …)
T1 sequence (Q99570 whole entry, one chain of several): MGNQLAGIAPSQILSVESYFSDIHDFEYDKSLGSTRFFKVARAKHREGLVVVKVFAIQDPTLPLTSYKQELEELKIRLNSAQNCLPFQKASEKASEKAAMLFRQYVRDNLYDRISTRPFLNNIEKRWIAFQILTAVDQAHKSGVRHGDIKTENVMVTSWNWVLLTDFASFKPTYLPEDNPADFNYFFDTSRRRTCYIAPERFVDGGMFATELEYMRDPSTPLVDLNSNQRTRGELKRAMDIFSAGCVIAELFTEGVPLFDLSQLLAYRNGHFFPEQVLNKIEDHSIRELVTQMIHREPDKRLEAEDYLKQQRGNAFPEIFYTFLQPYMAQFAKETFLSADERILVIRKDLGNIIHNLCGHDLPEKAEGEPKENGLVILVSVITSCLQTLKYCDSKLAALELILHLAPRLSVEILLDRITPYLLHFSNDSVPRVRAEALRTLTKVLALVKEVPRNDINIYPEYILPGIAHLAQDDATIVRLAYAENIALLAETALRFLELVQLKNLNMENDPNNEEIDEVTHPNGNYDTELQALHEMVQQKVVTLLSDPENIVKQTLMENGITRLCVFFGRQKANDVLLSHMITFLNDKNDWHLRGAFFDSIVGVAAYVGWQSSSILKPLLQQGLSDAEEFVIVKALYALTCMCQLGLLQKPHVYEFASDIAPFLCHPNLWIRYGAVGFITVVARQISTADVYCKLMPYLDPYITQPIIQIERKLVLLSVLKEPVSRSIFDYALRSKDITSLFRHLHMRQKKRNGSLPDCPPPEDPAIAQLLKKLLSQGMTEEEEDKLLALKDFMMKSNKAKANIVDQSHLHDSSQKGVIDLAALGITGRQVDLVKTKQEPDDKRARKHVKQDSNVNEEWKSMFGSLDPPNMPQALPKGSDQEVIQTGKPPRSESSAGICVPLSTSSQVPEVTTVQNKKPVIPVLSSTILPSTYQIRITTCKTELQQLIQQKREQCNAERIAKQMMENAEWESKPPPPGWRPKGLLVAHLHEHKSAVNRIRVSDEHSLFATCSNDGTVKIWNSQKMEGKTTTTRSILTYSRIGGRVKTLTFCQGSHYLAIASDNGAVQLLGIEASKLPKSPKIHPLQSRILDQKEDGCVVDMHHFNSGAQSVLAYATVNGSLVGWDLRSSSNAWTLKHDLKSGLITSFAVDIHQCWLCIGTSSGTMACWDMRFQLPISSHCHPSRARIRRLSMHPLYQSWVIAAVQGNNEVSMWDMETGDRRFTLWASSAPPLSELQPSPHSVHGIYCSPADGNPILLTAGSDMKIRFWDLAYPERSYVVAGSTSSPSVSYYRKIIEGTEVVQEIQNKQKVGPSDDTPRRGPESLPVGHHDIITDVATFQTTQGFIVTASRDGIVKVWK
In words: SEC-MALS; purified, co-expressed human complex II at 0.8 mg/mL; Superose 6 10/300, 0.5 mL/min; measured 384 kDa against 386 kDa theoretical. The conditions noted are these: both partners purified.

B1: human UVRAG, specific subunit of complex II (natural protein, UniProt Q9P2Y5 1-699, looked up)
chain: MSASASVGGPVPQPPPGPAAALPPGSAARALHVELPSQQRRLRHLRNIAARNIVNRNGHQLLDTYFTLHLCSTEKIYKEFYRSEVIKNSLNPTWRSLDFGIMPDRLDTSVSCFVVKIWGGKENIYQLLIEWKVCLDGLKYLGQQIHARNQNEIIFGLNDGYYGAPFEHKGYSNAQKTILLQVDQNCVRNSYDVFSLLRLHRAQCAIKQTQVTVQKIGKEIEEKLRLTSTSNELKKKSECLQLKILVLQNELERQKKALGREVALLHKQQIALQDKGSAFSAEHLKLQLQKESLNELRKECTAKRELFLKTNAQLTIRCRQLLSELSYIYPIDLNEHKDYFVCGVKLPNSEDFQAKDDGSIAVALGYTAHLVSMISFFLQVPLRYPIIHKGSRSTIKDNINDKLTEKEREFPLYPKGGEKLQFDYGVYLLNKNIAQLRYQHGLGTPDLRQTLPNLKNFMEHGLMVRCDRHHTSSAIPVPKRQSSIFGGADVGFSGGIPSPDKGHRKRASSENERLQYKTPPPSYNSALAQPVTTVPSMGETERKITSLSSSLDTSLDFSKENKKKGEDLVGSLNGGHANVHPSQEQGEALSGHRATVNGTLLPSEQAGSASVQLPGEFHPVSEAELCCTVEQAEEIIGLEATGFASGDQLEAFNCIPVDSAVAVECDEQVLGEFEEFSRRIYALNENVSSFRRPRRSSDK
notes: UVRAG, human; see Supplementary file 6; also called HsUVRAG; not shown: ZZ (only in pYO1018 and pYO1023)
For B1, the “stoichiometry N” value was determined as 1.
